The text below walks through data of patent publication EP1980246A1.

For assay [1], the target named is purified porcine TGF-β1 (Peninsula) (porcine) (UniProt P07200). Description: active TGF-β ELISA, R2X capture, TGF-β titrated in TBS, BDA47 detection; ΔA50%. In general terms: In an ELISA, binding on a coated surface is turned into a signal by an enzyme label.
For assay [2], the target named is recombinant human TGF-β1 (human) (UniProt P01137). The description is as above.
Chain of recombinant human TGF-β1 (human) (P01137 279-390 limits assumed): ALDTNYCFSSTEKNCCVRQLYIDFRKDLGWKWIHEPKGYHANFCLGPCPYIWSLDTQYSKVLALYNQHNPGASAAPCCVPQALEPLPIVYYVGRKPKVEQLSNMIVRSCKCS

Chain of purified porcine TGF-β1 (Peninsula) (porcine) (P07200 279-390 limits assumed): as the sequence (P01137 279-390 limits assumed) above

Regarding “truncated extracellular domain of the type II TGF-beta receptor fused to glutathione-S-transferase (R2X) (from UniProt P08515 1-218; P37173 23-166)”, the EC50 in assay [1] is 0.68 nM; in assay [2], 0.72 nM.

The EC50 is the concentration at which the effect is half-maximal.
